Laboratory results reported in paper PMC4963994, “Recombinant expression of Chlamydia trachomatis major outer membrane protein in E. Coli outer membrane as a substrate for vaccine research” (BMC Microbiology, 2016).

Target: the molecule itself
Test: SDS-PAGE and western blot; purified MOMP in SDS loading buffer, all samples heated and reduced; NuPAGE gel; blot with anti-CtE EB mouse sera; SDS-resistant dimeric and oligomeric forms

B1: recombinant C. trachomatis Serovar E major outer membrane protein, expressed in the E. coli outer membrane with a PelB leader and purified (natural protein)
chain: LPVGNPAEPSLMIDGILWEGFGGDPCDPCTTWCDAISMRMGYYGDFVFDRVLKTDVNKEFQMGDKPTSTTGNATAPTTLTARENPAYGRHMQDAEMFTNAACMALNIWDRFDVFCTLGASSGYLKGNSASFNLVGLFGDNENQSTVKTNSVPNMSLDQSVVELYTDTAFSWSVGARAALWECGCATLGASFQYAQSKPKVEELNVLCNAAEFTINKPKGYVGQEFPLALIAGTDAATGTKDASIDYHEWQASLALSYRLNMFTPYIGVKWSRASFDADTIRIAQPKSATAIFDTTTLNPTIAGAGDVKASAEGQLGDTMQIVSLQLNKMKSRKSCGIAVGTTIVDADKYAVTVETRLIDERAAHVNAQFRF
notes: Major outer membrane protein (MOMP), C. trachomatis strain E/12-94 Serovar E, ORF O175_03780; also called rCtE-MOMP; rMOMP
binding result: binds
